Assay [1] has as its target T1, GFP-THAP1 fusion protein (pEGFP.C2-THAP1) (human, UniProt Q5RCE4 1-213 (Pongo abelii entry)).
T1 construct: Expressed in transfected primary human endothelial cells (HUVEC); not shown: Enhanced Green Fluorescent Protein (EGFP) of pEGFP.C2 (Clontech), N-terminal
T1 sequence: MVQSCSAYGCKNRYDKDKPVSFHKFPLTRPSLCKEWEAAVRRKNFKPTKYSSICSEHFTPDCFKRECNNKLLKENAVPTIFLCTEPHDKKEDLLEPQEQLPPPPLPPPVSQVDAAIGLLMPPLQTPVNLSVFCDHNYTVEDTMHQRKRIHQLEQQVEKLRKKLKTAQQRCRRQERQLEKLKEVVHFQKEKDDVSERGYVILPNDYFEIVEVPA
As to the kind of experiment: in vivo interaction assay: co-transfection in primary human endothelial cells, confocal microscopy. An excerpt: To provide further evidence for a physiological interaction between THAP1 and Par4 in vivo interactions between THAP1 and PAR4 were investigated. For that purpose, confocal immunofluorescence microscopy was used to analyze the subcellular localization of epitope-tagged Par4DD in primary human endothelial cells transiently cotransfected with pEF-mycPar4DD eukaryotic expression vector and GFP or GFP-THAP1 expression vectors (pEGFP.C2 and pEGFP.C2-THAP1, respectively). To generate pEF-mycPar4DD, mycPar4DD (amino acids 250-342) was amplified by PCR using pGBKT7-Par4DD as template, with primers myc.BD7 (5′-[…]-3′) (SEQ ID NO: 195) and Par4.9 (5′-[…]-3′) (SEQ ID NO: 196), and cloned into the XbaI and NotI sites of the pEF-BOS expression vector (Mizushima and Nagata, Nucleic Acids Research, 18:5322, 1990). Primary human endothelial cells from umbilical vein (HUVEC, PromoCell, Heidelberg, Germany) were grown in complete ECGM medium (PromoCell, Heidelberg, Germany), plated on coverslips and transiently transfected in RPMI medium using GeneJammer transfection reagent according to manufacturer instructions (Stratagene, La Jolla, Calif., USA). […] Cells were then washed three times 5 min at room temperature in PBS-BSA, and incubated for 1 hr with Cy3 (red fluorescence)-conjugated goat anti-mouse (1/1000, Amersham Pharmacia Biotech) secondary antibodies, diluted in PBS-BSA. […]

Assay [2] addresses T2, human THAP1 (THanatos-Associated Protein-1), full length (human, UniProt Q9NVV9 1-213).
T2 construct: Used as Gal4-BD (pGBKT7) or Gal4-AD (pGADT7, pGAD424) fusion in yeast two-hybrid and as 35S-labelled in vitro translated protein (template pGBKT7-THAP1); also called hTHAP1; THAP1 wild type
T2 sequence: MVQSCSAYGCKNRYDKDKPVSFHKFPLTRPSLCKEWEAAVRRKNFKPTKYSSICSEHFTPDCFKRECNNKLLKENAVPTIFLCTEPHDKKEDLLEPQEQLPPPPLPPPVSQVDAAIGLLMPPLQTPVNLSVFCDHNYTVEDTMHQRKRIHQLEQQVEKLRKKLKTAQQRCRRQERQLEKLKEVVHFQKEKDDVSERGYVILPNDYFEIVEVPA
Nature of the assay: yeast two-hybrid with THAP1 bait and GST pull-down with GST-THAP1.

Assay [3] concerns the target T2, human THAP1 (THanatos-Associated …). As to the kind of experiment: yeast two-hybrid, AH109, His/Ade selection. An excerpt:
285) and CXCL10-2 (5′-[…]-3′) (SEQ ID NO. 286), No. 2403734 (IFNγ) with primers IFN-1 (5′-[…]-3′) (SEQ ID NO: 287) and IFN-2 (5′-[…]-3′) (SEQ ID NO: 288). The PCR products were digested with EcoRI and BamHI, and cloned between EcoRI and BamHI cloning sites of vector pGBKT7 (Clontech).

Data on three molecules can be found in patent US20060275295A1 (published 2006).

B1: myc-Par4DD (epitope-tagged Par4DD, amino acids 250-342, pEF-mycPar4DD) (other, not shown: small tags and cut ends)
chain: GFPRYNRDANVSGTLVSSSTLEKKIEDLEKEVVTERQENLRLVRLMQDKEEMIGKLKEEIDLLNRDLDDIEDENEQLKQENKTLLKVVGQLTR
notes: Expressed in transfected primary human endothelial cells (HUVEC)
Take B1: in assay [1], the binding result is “binds”.

B2: SLC/CCL21ΔCOOH (SLC/CCL21 deletion mutant lacking the basic carboxy-terminal extension, amino acids 102-134) (ligand)
chain: SDGGAQDCCLKYSQRKIPAKVVRSYRKQEPSLGCSIPAILFLPRKRSQAELCADPKELWVQQLMQHLDKTPSPQKPAQG
notes: The BamHI-PstI fragment is said to encode SLC amino acids 24-102
In the case of B2, the binding result in assay [2] is “binds”.

B3: human chemokine CXCL9, mature form (amino acids 23-125) (ligand)
chain: TPVVRKGRCSCISTNQGTIHLQSLKDLKQFAPSPSCEKIEIIATLKNGVQTCLNPDSADVKELIKKWEKQVSQKKKQKNGKKHQKKKVLKVRKSQRSRQKKTT
notes: Gal4 fusion in yeast or in vitro translated (pGBKT7 or pGADT7 template); tags not built in; also called MIG/CXCL9; MIG
On to B3, for which the binding result in assay [3] is given as “binds”.
